Test results from paper PMC5065529, “Wnt Signalosome Assembly by DEP Domain Swapping of Dishevelled” (Molecular Cell, 2016).

B1: SNAP-FZD5 (Frizzled 5), wild type [human] / DEP_(414–507)-GFP, minimal DEP domain of DVL2 [human] (parent)
chain 1: GRGLSVHTDMASVTKAMAAPESGLEVRDRMWLKITIPNAFLGSDVVDWLYHHVEGFPERREARKYASGLLKAGLIRHTVNKITFSEQCYYVFGD
chain 2: ASKAPVCQEITVPMCRGIGYNLTHMPNQFNHDTQDEAGLEVHQFWPLVEIQCSPDLRFFLCSMYTPICLPDYHKPLPPCRSVCERAKAGCSPLMRQYGFAWPERMSCDRLPVLGRDAEVLCMDYNRSEATTAPPRPFPAKPTLPGPPGAPASGGECPAGGPFVCKCREPFVPILKESHPLYNKVRTGQVPNCAVPCYQPSFSADERTFATFWIGLWSVLCFISTSTTVATFLIDMERFRYPERPIIFLSACYLCVSLGFLVRLVVGHASVACSREHNHIHYETTGPALCTIVFLLVYFFGMASSIWWVILSLTWFLAAGMKWGNEAIAGYAQYFHLAAWLIPSVKSITALALSSVDGDPVAGICYVGNQNLNSLRGFVLGPLVLYLLVGTLFLLAGFVSLFRIRSVIKQGGTKTDKLEKLMIRIGIFTLLYTVPASIVVACYLYEQHYRESWEAALTCACPGHDTGQPRAKPEYWVLMLKYFMCLVVGITSGVWIWSGKTVESWRRFTSRCCCRPRRGHKSGGAMAAGDYPEASAALTGRTGPPGPAATYHKQVSLSHV

Variants of: B1
Assay: FZD5-dependent PM recruitment of DEP-GFP (cell scoring)
Conditions: with DEP_(414–507)-GFP, 100 cells scored in each case

Row | Variant | screen value (parent: 52, read off a plot) | screen value (parent: 88, read off a plot)
1 | chain 2 ASKAPVCQEITVPMCRGIGYNLTHMPNQFNHDTQDEAGLEVHQFWPLVEIQCSPDLRFFLCSMYTPICLPDYHKPLPPCRSVCERAKAGCSPLMRQYGFAWPERMSCDRLPVLGRDAEVLCMDYNRSEATTAPPRPFPAKPTLPGPPGAPASGGECPAGGPFVCKCREPFVPILKESHPLYNKVRTGQVPNCAVPCYQPSFSADERTFATFWIGLWSVLCFISTSTTVATFLIDMERFRYPERPIIFLSACYLCVSLGFLVRLVVGHASVACSREHNHIHYETTGPALCTIVFLLVYFFGMASSIWWVILSLTWFLAAGMKWGNEAIAGYAQYFHLAAWLIPSVKSITALALSSVDGDPVAGICYVGNQNLNSLRGFVLGPLVLYLLVGTLFLLAGFVSLFRIRSVIKQGGTKTDKLEKLMIRIGIFTLLYTVPASIVVACYLYEQHYRESWEAALTCACPGHDTGQPRAKPEYWVLMLKYFMCLVVGITSGVWIWSGKTVESWRAFTSRCCCRPRRGHKSGGAMAAGDYPEASAALTGRTGPPGPAATYHKQVSLSHV [chain 2 R506A] | 49 % of cells | 96 % of cells
2 | chain 2 ASKAPVCQEITVPMCRGIGYNLTHMPNQFNHDTQDEAGLEVHQFWPLVEIQCSPDLRFFLCSMYTPICLPDYHKPLPPCRSVCERAKAGCSPLMRQYGFAWPERMSCDRLPVLGRDAEVLCMDYNRSEATTAPPRPFPAKPTLPGPPGAPASGGECPAGGPFVCKCREPFVPILKESHPLYNKVRTGQVPNCAVPCYQPSFSADERTFATFWIGLWSVLCFISTSTTVATFLIDMERFRYPERPIIFLSACYLCVSLGFLVRLVVGHASVACSREHNHIHYETTGPALCTIVFLLVYFFGMASSIWWVILSLTWFLAAGMKWGNEAIAGYAQYFHLAAWLIPSVKSITALALSSVDGDPVAGICYVGNQNLNSLRGFVLGPLVLYLLVGTLFLLAGFVSLFRIRSVIKQGGTKTDKLEKLMIRIGIFTLLYTVPASIVVACYLYEQHYRESWEAALTCACPGHDTGQPRAKPEYWVLMLKYFMCLVVGITSGVWIWAGKTVESWRRFTSRCCCRPRRGHKSGGAMAAGDYPEASAALTGRTGPPGPAATYHKQVSLSHV [chain 2 S497A] | 60 % of cells | 90 % of cells
3 | chain 2 ASKAPVCQEITVPMCRGIGYNLTHMPNQFNHDTQDEAGLEVHQFWPLVEIQCSPDLRFFLCSMYTPICLPDYHKPLPPCRSVCERAKAGCSPLMRQYGFAWPERMSCDRLPVLGRDAEVLCMDYNRSEATTAPPRPFPAKPTLPGPPGAPASGGECPAGGPFVCKCREPFVPILKESHPLYNKVRTGQVPNCAVPCYQPSFSADERTFATFWIGLWSVLCFISTSTTVATFLIDMERFAYPERPIIFLSACYLCVSLGFLVRLVVGHASVACSREHNHIHYETTGPALCTIVFLLVYFFGMASSIWWVILSLTWFLAAGMKWGNEAIAGYAQYFHLAAWLIPSVKSITALALSSVDGDPVAGICYVGNQNLNSLRGFVLGPLVLYLLVGTLFLLAGFVSLFRIRSVIKQGGTKTDKLEKLMIRIGIFTLLYTVPASIVVACYLYEQHYRESWEAALTCACPGHDTGQPRAKPEYWVLMLKYFMCLVVGITSGVWIWSGKTVESWRRFTSRCCCRPRRGHKSGGAMAAGDYPEASAALTGRTGPPGPAATYHKQVSLSHV [chain 2 R239A] | 11 % of cells | 56 % of cells

More lines, now with the values ahead:

Row | screen value (parent: 52, read off a plot) | screen value (parent: 88, read off a plot) | Variant
4 | 12 % of cells | 77 % of cells | chain 2 ASKAPVCQEITVPMCRGIGYNLTHMPNQFNHDTQDEAGLEVHQFWPLVEIQCSPDLRFFLCSMYTPICLPDYHKPLPPCRSVCERAKAGCSPLMRQYGFAWPERMSCDRLPVLGRDAEVLCMDYNRSEATTAPPRPFPAKPTLPGPPGAPASGGECPAGGPFVCKCREPFVPILKESHPLYNKVRTGQVPNCAVPCYQPSFSADERTFATFWIGLWSVLCFISTSTTVATFLIDMEAFRYPERPIIFLSACYLCVSLGFLVRLVVGHASVACSREHNHIHYETTGPALCTIVFLLVYFFGMASSIWWVILSLTWFLAAGMKWGNEAIAGYAQYFHLAAWLIPSVKSITALALSSVDGDPVAGICYVGNQNLNSLRGFVLGPLVLYLLVGTLFLLAGFVSLFRIRSVIKQGGTKTDKLEKLMIRIGIFTLLYTVPASIVVACYLYEQHYRESWEAALTCACPGHDTGQPRAKPEYWVLMLKYFMCLVVGITSGVWIWSGKTVESWRRFTSRCCCRPRRGHKSGGAMAAGDYPEASAALTGRTGPPGPAATYHKQVSLSHV [chain 2 R237A]
5 | 49 % of cells | 85 % of cells | chain 2 ASKAPVCQEITVPMCRGIGYNLTHMPNQFNHDTQDEAGLEVHQFWPLVEIQCSPDLRFFLCSMYTPICLPDYHKPLPPCRSVCERAKAGCSPLMRQYGFAWPERMSCDRLPVLGRDAEVLCMDYNRSEATTAPPRPFPAKPTLPGPPGAPASGGECPAGGPFVCKCREPFVPILKESHPLYNKVRTGQVPNCAVPCYQPSFSADERTFATFWIGLWSVLCFISTSTTVATFLIDMERFRYPERPIIFLSACYLCVSLGFLVRLVVGHASVACSREHNHIHYETTGPALCTIVFLLVYFFGMASSIWWVILSLTWFLAAGMKWGNEAIAGYAQYFHLAAWLIPSVKSITALALSSVDGDPVAGICYVGNQNLNSLRGFVLGPLVLYLLVGTLFLLAGFVSLFRIRSVIKQGGTKTDKLEKLMIRIGIFTLLYTVPASIVVACYLYEQHYRESWEAALTCACPGHDTGQPRAKPEYWVLMLKYFMCLVVGITSGVWIWSGKTVESWRRFTSACCCRPRRGHKSGGAMAAGDYPEASAALTGRTGPPGPAATYHKQVSLSHV [chain 2 R510A]
6 | 50 % of cells | 93 % of cells | chain 2 ASKAPVCQEITVPMCRGIGYNLTHMPNQFNHDTQDEAGLEVHQFWPLVEIQCSPDLRFFLCSMYTPICLPDYHKPLPPCRSVCERAKAGCSPLMRQYGFAWPERMSCDRLPVLGRDAEVLCMDYNRSEATTAPPRPFPAKPTLPGPPGAPASGGECPAGGPFVCKCREPFVPILKESHPLYNKVRTGQVPNCAVPCYQPSFSADERTFATFWIGLWSVLCFISTSTTVATFLIDMERFRYPERPIIFLSACYLCVSLGFLVRLVVGHASVACSREHNHIHYETTGPALCTIVFLLVYFFGMASSIWWVILSLTWFLAAGMKWGNEAIAGYAQYFHLAAWLIPSVKSITALALSSVDGDPVAGICYVGNQNLNSLRGFVLGPLVLYLLVGTLFLLAGFVSLFRIRSVIKQGGTKTDKLEKLMIRIGIFTLLYTVPASIVVACYLYEQHYRESWEAALTCACPGHDTGQPRAKPEYWVLMLKYFMCLVVGITSGVWIWSGKTVEAWRRFTSRCCCRPRRGHKSGGAMAAGDYPEASAALTGRTGPPGPAATYHKQVSLSHV [chain 2 S503A]
